{
  "source": "patent US20190119406",
  "proteins": {"B1": {"name": "Mutant OA chain (long chain, CH1-hinge-CH2-CH3 with P395K, P396K, V397K) (protein)", "chain": "ASTKGPSVFPLAPSSKSTSGGTAALGCLVKDYFPEPVTVSWNSGALTSGVHTFPAVLQSSGLYSLSSVVTVPSSSLGTQTYICNVNHKPSNTKVDKKVEPKSCDKTHTCPPCPAPELLGGPSVFLFPPKPKDTLMISRTPEVTCVVVDVSHEDPEVKFNWYVDGVEVHNAKTKPREEQYNSTYRVVSVLTVLHQDWLNGKEYKCKVSNKALPAPIEKTISKAKGQPREPQVYTLPPSRDELTKNQVSLTCLVKGFYPSDIAVEWESNGQPENNYKTTKKKLDSDGSFFLYSKLTVDKSRWQQGNVFSCSVMHEALHNHYTQKSLSLSPGK"}},
  "molecular_target": "T1, Mutant OB chain (short chain, hinge-CH2-CH3 with T394D, P395D, P396D) [IgG part: P01857]",
  "T1 chain": "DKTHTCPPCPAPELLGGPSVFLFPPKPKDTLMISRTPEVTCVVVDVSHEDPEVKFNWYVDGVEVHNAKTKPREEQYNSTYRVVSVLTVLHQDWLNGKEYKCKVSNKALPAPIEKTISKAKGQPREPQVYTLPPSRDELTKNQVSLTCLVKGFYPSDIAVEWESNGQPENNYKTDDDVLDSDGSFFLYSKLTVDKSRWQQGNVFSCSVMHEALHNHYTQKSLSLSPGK",
  "test": "co-transfection of OA and OB in HEK293, protein A bead pull-down, SDS-PAGE (FIGS. 3, 4 and 6)",
  "data": [
    {"protein": "B1", "values": [
      {"measurement": "yield of heterodimer", "result": "high yield of heterodimer (above 95%)"}
    ]}
  ]
}
